The data set in a line: soluble on expression in E. coli; label from the status in PepcDB or PDB records.
On to “TANKRHYLEKVSHQGIISALAFDQRGALKQMMAAHQEGEATVTQIETLKVLVSEELTPYASSILLDPEYGLLATKVRANQTGLLLAYEKTGYDATTTSRLPDCLVEWSVKRLKAAGADAIKFLLYYDVDGDEQINLQKQAYIERIGSECTAEDIPFFLELLSYDERISDNNSAAYAKLKPHKVNGAMSVFSDKRFGVDVLKVEVPVNMAYVEGFTEGEVHYSQAEAIKAFQDQEAASHLPYIYLSAGVSAKLFQETLYFAAAAGAQFSGVLCGRATWAGSVPVYITKGEDEARKWLCTEGFQNIDELNRVLEETASPWTEKI”, for which the “soluble on expression in E. coli” value is given as “not soluble”.
For “TATNHQGLPAVDSEILEMPPEKADGVVEGIDVNGPKAQLMLRYPDGKREQITLPEQAKLLALVKHVQSKGYPNERFELLTNFPRRKLSHLDYDITLQEAGLCPQETVFVQE” the value was “soluble”.
Consider “TCCHGHGHGHDHGHRHAPRPAVAAIGTLAGNAELRWSDLRIEAMDCPTEERLIRDALGRQPAVESLEFNLMQRLLRVQHRFDSVEPLQKLIAGLGMQAVPLDAGENTDGPSQAPA”, for which the “soluble on expression in E. coli” value was “not soluble”.
For “TDVDAFTLGEDLAYTPGDVIYQNDLIQLIQYKASTKKVNEVPLLFIPPFINKYYVLDMDEQKSLIKWAVGQGHTVFVISWINPDKTLSHKGFNDYMKEGPIASLDVIEELTKSKKVNVVGYCIGGTLLATTQSYLLAKGDTRINSLTFLTTLLDFEEPGEIGVYLSEKMLPFLKKDIKEKGLLDGRVLGLAFSMLRENSLFWSYFVNNYLKGKDPAPFDILYWNSDSSNLPAETFDFYMTNTYQENNLIKDGAVEVEGVPIELSKIDTPSYFLATIADHIVLWQASYKGAKALSGPTRFVLAGSGHL” the value was “not soluble”; for “THGWNFQVSANAAYNKNEVMDLKNGGARIWSGKYFNQEGYAINSIGGYIAEGLFKTEEEVANSATIPGTDTAPGDIKYRDINNDGKIDGEDRVYIGNTMPKWTFGLNLFAEWKGLDATFLFQGAADVQGYLAGPGVVGEMIGAKGKPSYMYRDCWDAETNPNGKFPRAFSSYRQNNSIYNPSSFWIVNSSYLRLKNFQLGYTLPKEWCNMMGISRIRVYYSGQNLLTFTKFDKGFDPESPEGGSSYPQVKTNTFGLNITF”, “not soluble”.
For “TKAVTFYEDINYGGASVSLQPGNYTLSQLNTAKIPNDWMTSLKVPSGWTVDVYENDNFTGTKWTYTSDTPWVGNDANDKMTSVKIYST” the value was “soluble”; for “TKDFEWKTTVTASHNANKLLSLSNDLYETSNQIDHAYLGEPINLSTQRMEVGRSMGQFYGMKSVGVSENGLWMVENTKTGEIEEFTDNMLSNDDYRQYLGNALPKLYLGWNNSFRYKNFDLSFQMTGQFGFKILNEPRAYYENNSIAYNRLKSVQKAPYGGQYTLSTAQKQTFVSYYLEDGDFLKMTNITLGYNIPLKSSKFVKNIRAYVSADNLFCITGYDGLDPEMSNGDIWSLGIDWRDKYPSTRSFTFGLNVSF”, “not soluble”; for “TKNWSWTASANAAWQKVRIKNLTLTPGAPSPDTEVGPWIDAYQMQVFSTDYAPYSFYLYKQLYDAETGQPIEGLYADLDGDGEITNKDRYHHHSPAPDWILGFSTSLRYKKWTLSTSLRANIGGYIFNGMAMNTGAWETMSYNDYQLNNLNRSFLDTRFTKRQFLSDHYLENASFLKMDNLQLSYDFGRIYKTIGLHASAMVQNVFTVTKYKGVDPETANGVDTSVYPRPRTYSITIGLNF”, “not soluble”.
Take “TMEPERLFNLIVKTTVDTLRAQIGYIILYSPREKNLQVTTLLGHTIPEGSTTTLPMKQSSVSTWVIENRRPLLITTMDEWPQFDRYSSLGYERRTLICAPLQIKDEIIGTITVVNKDDNSTYTIQELELLSTIAAQASIAIKNAQLYDEQQATYLHTIQALVSAIEAS”: the “soluble on expression in E. coli” value was “not soluble”.
Turning to “TMSSCVSSQPSSNRAAPQDELGGRGSSSSESQKPCEALRGLSSLSIHLGMESFIVVTECEPGCAVDLGLARDRPLEADGQEVPLDSSGSQARPHLSGRKLSLQERSQGGLAAGGSLDMNGRCICPSLPYSPVSSPQSSPRLPRRPTVESHHVSITGMQDCVQLNQYTLKDEIGKGSYGVVKLAYNENDNTYYAMKVLSKKKLIRQAGFPRRPPPRGTRPAPGGCIQPRGPIEQVYQEIAILKKLDHPNVVKLVEVLDDPNEDHLYMVFELVNQGPVMEVPTLKPLSEDQARFYFQDLIKGIEYLHYQKIIHRDIKPSNLLVGEDGHIKIADFGVSNEFKGSDALLSNTVGTPAFMAPESLSETRKIFSGKALDVWAMGVTLYCFVFGQCPFMDERIMCLHSKIKSQALEFPDQPDIAEDLKDLITRMLDKNPESRIVVPEIKLHPWVTRHGAEPLPSEDENCTLVEVTEEEVENSVKHIPSLATVILVKTMIRKRSFGNPFEGSRREERSLSAPGNLLTKKPTRECESLSELKGTKKKKGLDSMTSTVAAGWLDRRV”, the “soluble on expression in E. coli” value is listed as “soluble”.
For “TNADYPALYLANFLLGTSETSRLWHRVRETEGLSYNVRSNLSVSSYEPSANWTIYAIYAPQNRARLEKAISEELARALKDGFTDQEVRDGVVALLNYRNLARAQDDVLADTWVNYMQTGRSFQWSADMDRKLEALTPDQVNAALRKYLKPDAFSTAVAGDFTKKSAP” the value was “not soluble”; for “TNTEEFCSGCHAPIVKEIQETIHYSNRSGVRAICSDCHVPHNWTDKIVRKVQASKELFAHYVTKTIDTEEKFKERRAHLAEREWHRMKENNSQECRNCHEFDYMDFSEQGPRSAKQHSTALASGEKTCVDCHKGIAHKL”, “not soluble”.
For “TPAQLISIAVTPINPSVAKGLIRQFKATGTYTDHSVQDVTALATWSSSNPGKAMVNNVTGSVTTVATGNTNIKATIDSISGSSVLNVTPALLTSIEITPTINSITHGLTKQFKATGIFSDKSTQNLTQLVTWISSDPSKIEIENTSGKKGIATASKLGSSNIKAVYKFIQSSPIPITVTDLKLKSITISPSSSSIAKGLTQQFKAIGTFIDGSEQEITNLVTWYSSKSDVAPINNAANAKGLATALSIGSSNISAIYNSISSNKINFNVSAATLDSIKINPVNNNIAKGLTQQYTALGVYSDSTIQDISDSVTWSSSNSDSISISNSTETKGKATALQIGNSKITATYNSISENIDITVSAATL”, the “soluble on expression in E. coli” value was “not soluble”.
Under “TPLSQSSSSKNASDVSGSIQPVDSKSGLQMLFSGYRGIGGVQTLDLQQMSSDIPNAETKTVADQVINAWKQMKYTPFGRSTGSFTIRLNPEHLGFVTIKLTNENGMFQSKIIASSQSAKELLEQHLPQLKQSLPNMAVQIDRFTLPVQS” stands “not soluble”; under “TQYKYAWIINGLTKSTGETYIPTAADDGFNIRLEVTGQDAYGQVTEMQYVVYAFSKVETIFSDMYAFAALKTDGSVVTWGYSDYGGDSSSVAGQLTSGVKVIDSTSSAFAAIKEDGSVVTWGDSPYGGDSSSVAGKLTSGVKVIYSNSSAFAAVKQDGSVVTWGSYGGDSSSVAGQLTSGVKVIYSTDSEFGAFAAVKEDGSVVTWGNSPYGGDSSSVAGQLTSGVKVIYSTNNAFAAVKEDGSVVTWGDSGAGGDSSSVAGQLTSGVKVIYSTNNAFAAVKEDGSVVTWGGYGGDSSSVAGQLTSGVKVIYSTNNAFAAVKEDGSVVTWGDSGNGGDSSSVAGQLTSGVKVIDSTYSAFAAVKEDGSVVAWGNSGYGGDSSSVAGQLTSGVKVIDSTTSAFAVVKEDGSVVTWGGSFYGGDSSSVAGQLTSGVKVIYSTSSAFAVVKEDGSVVTWGGSFYGGDSSSVADKLAPNLFLIETSIN”, “not soluble”; under “TRAFKWTTNFNISFNKNKVLALSENQTALLTAAQFDQNYNGQSSYIAKVGLPMGLMYGYVYEGTYKYDDFNKSGNSYSLKPGVPHYSTETNTQPGMPKYADLNGDGVVDSNDRTIIGRGLPIHTGGFTNNFEYKGIDLSIFFQWSYGNDIMNANRLFFESSNNRSRELNQFASYANRWTPENPTSDIPAATNSSSNRVISSRIIEDGSYLRLKNVTVGYTFPAKLVKKWKIDKARVYVAAQNLWTCTGYSGYDPEVSVRNSALTPGLDYSSYPRAYSISFGVSLGF”, “not soluble”.
“TSADGLKLVANYLEAPSPSNTTIILAHGYRGKSGKVEMAGLARMYNQKFGYNVLMPDARAHGESEGKNIGFGWPERKDYVQWTNQVLDKNGDDTEIVLHGVSMGSSTVLMTSAEKLPKQVKSIIADCGYTSMDAELAYQLKAMFHLPKFPIIPMASLINKVKEGFFFSEASAINAVAETDLPIFYIHGDSDAFVPTSMVEELYDATKSYKEKWVVKGAEHGQAFTVEPETYEEKVRQFLTKTM”: the “soluble on expression in E. coli” value was “not soluble”.
As to “TSDDHVPVDITDLLDRAAHDAARIYPDLDVSLVPSPTCIIVGLPAGLRLAVDNAIANAVKHGGATLVQLSAVSSRAGVEIAIDDNGSGVPEGERQVVFERFSRGSTASHSGSGLGLALVAQQAQLHGGTASLENSPLGGARLVLRLPGPS”, the “soluble on expression in E. coli” value is “soluble”.
For “TTNKPIVLSTWNFGLHANVEAWKVLSKGGKALDAVEKGVRLVEDDPTERSVGYGGRPDRDGRVTLDACIMDENYNIGSVACMEHIKNPISVARAVMEKTPHVMLVGDGALEFALSQGFKKENLLTAESEKEWKEWLKTSQYKPIVNIENHDCIGMIALDAQGNLSGACTTSGMAYKMHGRVGDSPIIGAGLFVDNEIGAATATGHGEEVIRTVGTHLVVELMNQGRTPQQACKEAVERIVKIVNRRGKNLKDIQVGFIALNKKGEYGAYCIQDGFNFAVHDQKGNRLETPGFALK” the value was “soluble”; for “TVTSASDQTTTFIQTISPTAIEISKTYDLYASVLLAQAILESSSGQSDLSKAPNYNLFGIKGEYKGKSVQMPTLEDDGKGNMTQIQAPFRAYPNYSASLYDYAELVSSQKYASVWKSNTSSYKDATAALTGLYATDTAYASKLNQIIETYSL”, “not soluble”.
With “TWVVSPAEKAKYDEIFLKTDKDMDGFVSGLEVREIFLKTGLPSTLLAHIWSLCDTKDCGKLSKDQFALAFHLISQKLIKGIDPPHVLTPEMIPPS”, the “soluble on expression in E. coli” value is recorded as “soluble”.
For “TYAFQRRRFWETPGADGPADAAGLGLGATEHALLGAVVERPDSDEVVLTGRLSLADQPWLADHVVNGVVLFPGAGFVELVIRAGDEVGCALIEELVLAAPLVMHPGVGVQVQVVVGAADESGHRAVSVYSRGDQSQGWLLNAEGMLGVAAAETPMDLSV” the value was “soluble”.
For “VAHFTFQPDPEPREYGQTQKMNLFQSVTSALDNSLAKDPTAVIFGEDVAFGGVFRCTVGLRDKYGKDRVFNTPLCEQGIVGFGIGIAVTGATAIAEIQFADYIFPAFDQIVNEAAKYRYRSGDLFNCGSLTIRSPWGCVGHGALYHSQSPEAFFAHCPGIKVVIPRSPFQAKGLLLSCIEDKNPCIFFEPKILYRAAAEEVPIEPYNIPLSQAEVIQEGSDVTLVAWGTQVHVIREVASMAKEKLGVSCEVIDLRTIIPWDVDTICKSVIKTGRLLISHEAPLTGGFASEISSTVQEECFLNLEAPISRVCGYDTPFPHIFEPFYIPDKWKCYDALRKMINYGGHHHHHH” the value was “soluble”; for “VAYWLVKSEPSVWSWDQQVAKGAAGEAWTGVRNHSAKLHMVAMRRGDRAFYYHSNEGKEIVGIAEIIREAYPDPTDASGKFVCVDIKADKPLKTPVTLAAVKAEPRLADMALMKYSRLSVQPVTAEEWKLVCKMGGLLEHHHHHH”, “soluble”.
For the sequence “VEHEQQVTESPSLASVPTADELFDFHIGDRVLIGNVQPGILRFKGETSFAKGFWAGVELDKPEGNNNGTYDGIAYFECKEKHGIFAPPQKISHIPENFDDYVDINEDED”, the “soluble on expression in E. coli” value is reported as “soluble”.

The values are drawn from the DeepSol protein solubility set.
